Changes are numbered by the printed parent chain. Each block holds one molecule with its values, some of them ahead of it.
Assays:
[1] = target: Ca2+/calmodulin (endogenous, in Arabidopsis plants) (Arabidopsis thaliana); test: cell-based or functional assay
[2] = target: T1, AtSR1 (CAMTA3) CG-1 DNA-binding domain (Arabidopsis thaliana, UniProt Q8GSA7 SEQ:1-153); test: EMSA; Ca2+/CaM-independent; conditions: tags: 6xHis (pET32a)
T1 sequence: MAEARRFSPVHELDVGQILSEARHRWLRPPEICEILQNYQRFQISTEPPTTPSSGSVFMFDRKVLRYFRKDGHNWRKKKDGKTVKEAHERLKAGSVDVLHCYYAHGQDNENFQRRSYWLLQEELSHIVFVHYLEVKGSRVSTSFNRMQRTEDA
Method: (§1) The E. coli strain BL21(DE3)/pLysS carrying the above pET32a derived plasmids for expression of recombinant proteins of the wild-type and mutated versions of AtSR1, AtSR6 or ABF1 were induced with 0.5 mM IPTG for 3 hours. 6×His tagged recombinant proteins were purified using Ni-NTA agarose affinity beads (Qiagen) as described by the manufacturer. Recombinant AtSR1 or AtSR6 covering CG-1 domain, or ABF1 was used for EMSA³² to detect its interaction with WT or mutated EDS1 promoter fragments. Recombinant AtSR1 containing CaMBD was used for CaM overlay assay³⁸.

[3] = target: T1, AtSR1 (CAMTA3) CG-1 DNA-binding domain; test: EMSA; binding is ACGCGT-dependent; conditions: tags: 6xHis (pET32a)
Method: as §1

B1: EDS1P probe (-762 to -731) (dsDNA)
DNA 1: GTAAAAGTCGAATGTGACGCGTCTTGCCGAAC
DNA 2: GTTCGGCAAGACGCGTCACATTCGACTTTTAC
binding result [2]: binds

B2: eds1p mutant probe (dsDNA)
DNA 1: B1 DNA 1 with G19C
DNA 2: B1 DNA 2 with C14G
modifications: [19 (G>C)]
binding result [3]: no binding

More lines, now with the values ahead:

level of SA in complemented plants [1]: 60 % of WT
Molecule: full-length AtSR1 I909V fused to Flag tag, expressed from 35S::AtSR1I909V in atsr1-1 plants (from UniProt Q8GSA7 1-1032)

level of SA in complemented plants [1]: 60 % of WT
Molecule: full-length wild-type AtSR1 fused to Flag tag, expressed from 35S::AtSR1 in atsr1-1 plants (from UniProt Q8GSA7 1-1032)
